Broadly, the IC50 is the concentration at which inhibition is half-maximal. A higher IC50 goes with weaker potency. The EC50 is the concentration needed to bring the measured effect to its halfway point. As a reminder, the EC90 is the concentration needed for an effect of 90%. Low values mean greater potency, high ones weaker potency.

Experimental findings from US12534531 (MacroGenics, dated 2026) are described below.

Experiment [1] concerns the target T1, human PD-1 expressed on the surface of cells (NSO cells expressing human PD-1; MNFAT-luc2/PD-1 Jurkat cells) (human, UniProt Q15116 21-288).
T1 construct: also called cell surface PD-1; PDCD1 transfected NSO cells expressing PD-1
In words: FACS: inhibition of sPD-L2 binding to PD-1 on NSO cells; SM; SD 0.0846. (Flow cytometry measures light scatter and fluorescence of single cells or particles in a stream.)

Experiment [2] concerns the target T2, biotinylated-soluble human LAG-3-Fc fusion protein (human, UniProt P18627 23-450, biotinylated (site not stated)).
T2 construct: whole entry named; also called shLAG-3; shLAG-3-Fc; not shown: Fc
T2 sequence: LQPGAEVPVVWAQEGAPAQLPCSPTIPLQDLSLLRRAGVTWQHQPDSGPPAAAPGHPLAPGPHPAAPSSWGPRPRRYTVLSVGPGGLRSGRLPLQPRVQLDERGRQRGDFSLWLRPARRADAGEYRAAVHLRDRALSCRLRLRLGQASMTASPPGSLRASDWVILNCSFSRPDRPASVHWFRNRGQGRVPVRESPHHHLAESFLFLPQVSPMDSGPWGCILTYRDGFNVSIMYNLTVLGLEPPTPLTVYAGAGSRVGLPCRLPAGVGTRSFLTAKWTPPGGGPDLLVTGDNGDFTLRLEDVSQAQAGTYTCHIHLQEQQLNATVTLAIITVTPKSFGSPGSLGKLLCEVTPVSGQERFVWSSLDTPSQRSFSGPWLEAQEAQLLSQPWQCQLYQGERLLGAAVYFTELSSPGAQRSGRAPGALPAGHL
The experiment can be described thus: FACS: inhibition of shLAG-3-Fc binding to MHC II on Daudi cells (column head prints EC50); SM; SD 1.2674.

Experiment [3] deals with T3, human LAG-3 expressed on NSO cells (human, UniProt P18627 29-525).
T3 sequence: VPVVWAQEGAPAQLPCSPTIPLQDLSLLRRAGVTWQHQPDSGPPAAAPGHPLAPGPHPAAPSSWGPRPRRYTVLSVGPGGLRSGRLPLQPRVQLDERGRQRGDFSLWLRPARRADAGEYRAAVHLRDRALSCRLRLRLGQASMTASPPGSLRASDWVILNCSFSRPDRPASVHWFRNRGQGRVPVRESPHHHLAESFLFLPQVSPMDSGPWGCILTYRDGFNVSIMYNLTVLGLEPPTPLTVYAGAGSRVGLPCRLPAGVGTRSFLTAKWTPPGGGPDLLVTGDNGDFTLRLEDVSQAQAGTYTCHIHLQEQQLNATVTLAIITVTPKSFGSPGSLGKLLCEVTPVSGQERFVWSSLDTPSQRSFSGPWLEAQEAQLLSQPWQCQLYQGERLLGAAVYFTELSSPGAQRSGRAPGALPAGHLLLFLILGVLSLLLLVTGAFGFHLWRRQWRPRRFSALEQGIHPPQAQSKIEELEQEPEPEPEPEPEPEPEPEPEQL
In words: FACS saturation binding to NSO cells expressing LAG-3; SM; SD 0.5770.

Experiment [4] has as its target T1, human PD-1 expressed on the surface of …. The experiment can be described thus: FACS saturation binding to NSO cells expressing PD-1; single experiment.
Experiment [5] shares this target. In words: FACS: inhibition of sPD-L1 binding to PD-1 on NSO cells; SM; SD 0.1729.
Experiment [6] addresses T2, biotinylated-soluble human LAG-3-Fc …. The experiment can be described thus: FACS: inhibition of shLAG-3-Fc binding to MHC II on Daudi cells (column head prints EC50); SM; SD 3.3552.
In experiment [7] the target is T3, human LAG-3 expressed on NSO cells. The experiment can be described thus: FACS saturation binding to NSO cells expressing LAG-3; SM; SD 0.3045.
Experiment [8] addresses T1, human PD-1 expressed on the surface of …. In words: FACS: inhibition of sPD-L1 binding to PD-1 on NSO cells; SM; SD 0.3581.
The target is the same in experiment [9]. In words: FACS saturation binding to NSO cells expressing PD-1; SM; SD 0.6227.
For experiment [10] the target is unchanged. In words: FACS: inhibition of sPD-L2 binding to PD-1 on NSO cells; SM; SD 0.7891.

T1 sequence (Q15116 21-288): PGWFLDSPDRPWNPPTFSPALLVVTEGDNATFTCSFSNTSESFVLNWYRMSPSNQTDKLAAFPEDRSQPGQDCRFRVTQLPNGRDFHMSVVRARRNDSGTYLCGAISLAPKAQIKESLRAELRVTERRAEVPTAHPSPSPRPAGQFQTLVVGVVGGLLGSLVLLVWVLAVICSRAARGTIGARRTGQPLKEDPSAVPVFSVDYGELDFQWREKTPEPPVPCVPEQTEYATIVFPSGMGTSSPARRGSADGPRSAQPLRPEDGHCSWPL

B1: DART F (bispecific antibody, human IgG1, kappa, L234A L235A)
chain 1: QVQLVQSGAEVKKPGASVKVSCKASGYSFTSYWMNWVRQAPGQGLEWIGVIHPSDSETWLDQKFKDRVTITVDKSTSTAYMELSSLRSEDTAVYYCAREHYGTSPFAYWGQGTLVTVSSASTKGPSVFPLAPSSKSTSGGTAALGCLVKDYFPEPVTVSWNSGALTSGVHTFPAVLQSSGLYSLSSVVTVPSSSLGTQTYICNVNHKPSNTKVDKRVEPKSCDKTHTCPPCPAPEAAGGPSVFLFPPKPKDTLYITREPEVTCVVVDVSHEDPEVKFNWYVDGVEVHNAKTKPREEQYNSTYRVVSVLTVLHQDWLNGKEYKCKVSNKALPAPIEKTISKAKGQPREPQVYTLPPSREEMTKNQVSLSCAVKGFYPSDIAVEWESNGQPENNYKTTPPVLDSDGSFFLVSKLTVDKSRWQQGNVFSCSVMHEALHAKYTQKSLSLSPG
chain 2: EIVLTQSPATLSLSPGERATLSCRASESVDNYGMSFMNWFQQKPGQPPKLLIHAASNQGSGVPSRFSGSGSGTDFTLTISSLEPEDFAVYFCQQSKEVPYTFGGGTKVEIKRTVAAPSVFIFPPSDEQLKSGTASVVCLLNNFYPREAKVQWKVDNALQSGNSQESVTEQDSKDSTYSLSSTLTLSKADYEKHKVYACEVTHQGLSSPVTKSFNRGEC
chain 3: QVQLVQSGAEVKKPGASVKVSCKASGYSFTSYWMNWVRQAPGQGLEWIGVIHPSDSETWLDQKFKDRVTITVDKSTSTAYMELSSLRSEDTAVYYCAREHYGTSPFAYWGQGTLVTVSSASTKGPSVFPLAPSSKSTSGGTAALGCLVKDYFPEPVTVSWNSGALTSGVHTFPAVLQSSGLYSLSSVVTVPSSSLGTQTYICNVNHKPSNTKVDKRVEPKSCDKTHTCPPCPAPEAAGGPSVFLFPPKPKDTLYITREPEVTCVVVDVSHEDPEVKFNWYVDGVEVHNAKTKPREEQYNSTYRVVSVLTVLHQDWLNGKEYKCKVSNKALPAPIEKTISKAKGQPREPQVYTLPPSREEMTKNQVSLWCLVKGFYPSDIAVEWESNGQPENNYKTTPPVLDSDGSFFLYSKLTVDKSRWQQGNVFSCSVMHEALHNHYTQKSLSLSPGGGGSGGGSGGGDIVMTQTPLSLSVTPGQPASISCKSSQSLLHSDAKTYLNWLLQKPGQPPERLIYLVSELDSGVPDRFSGSGSGTDFTLKISRVEAEDVGVYYCWQGTHFPYTFGGGTKVEIKGGGSGGGGQVQLVQSGAEVKKPGASVKVSCKASGYSFTSYWMNWVRQAPGQGLEWIGVIHPSDSETWLDQKFKDRVTITVDKSTSTAYMELSSLRSEDTAVYYCAREHYGTSPFAYWGQGTLVTVSSGGCGGGEVAALEKEVAALEKEVAALEKEVAALEK
chain 4: EIVLTQSPATLSLSPGERATLSCRASESVDNYGMSFMNWFQQKPGQPPKLLIHAASNQGSGVPSRFSGSGSGTDFTLTISSLEPEDFAVYFCQQSKEVPYTFGGGTKVEIKGGGSGGGGQVQLVQSGAEVKKPGASVKVSCKASGYTFTNYGMNWVRQAPGQGLEWMGWINTYTGESTYADDFEGRFVFSMDTSASTAYLQISSLKAEDTAVYYCARESLYDYYSMDYWGQGTTVTVSSGGCGGGKVAALKEKVAALKEKVAALKEKVAALKE
With B1, the IC50 in [1] was 839 nM; in experiment [2], 1530 nM; in experiment [5], 570 nM. Also, the half-maximal effective concentration (EC50) in [3] came out at 5010 nM; in [4], 1430 nM. The EC90 in [4] came out at 14600 nM.

B2: DART G (bispecific antibody, human IgG1, kappa, L234A L235A)
chain 1: QVQLVQSGAEVKKPGASVKVSCKASGYTFTNYGMNWVRQAPGQGLEWMGWINTYTGESTYADDFEGRFVFSMDTSASTAYLQISSLKAEDTAVYYCARESLYDYYSMDYWGQGTTVTVSSASTKGPSVFPLAPSSKSTSGGTAALGCLVKDYFPEPVTVSWNSGALTSGVHTFPAVLQSSGLYSLSSVVTVPSSSLGTQTYICNVNHKPSNTKVDKRVEPKSCDKTHTCPPCPAPEAAGGPSVFLFPPKPKDTLYITREPEVTCVVVDVSHEDPEVKFNWYVDGVEVHNAKTKPREEQYNSTYRVVSVLTVLHQDWLNGKEYKCKVSNKALPAPIEKTISKAKGQPREPQVYTLPPSREEMTKNQVSLSCAVKGFYPSDIAVEWESNGQPENNYKTTPPVLDSDGSFFLVSKLTVDKSRWQQGNVFSCSVMHEALHAKYTQKSLSLSPG
chain 2: DIVMTQTPLSLSVTPGQPASISCKSSQSLLHSDAKTYLNWLLQKPGQPPERLIYLVSELDSGVPDRFSGSGSGTDFTLKISRVEAEDVGVYYCWQGTHFPYTFGGGTKVEIKRTVAAPSVFIFPPSDEQLKSGTASVVCLLNNFYPREAKVQWKVDNALQSGNSQESVTEQDSKDSTYSLSSTLTLSKADYEKHKVYACEVTHQGLSSPVTKSFNRGEC
chain 3: QVQLVQSGAEVKKPGASVKVSCKASGYTFTNYGMNWVRQAPGQGLEWMGWINTYTGESTYADDFEGRFVFSMDTSASTAYLQISSLKAEDTAVYYCARESLYDYYSMDYWGQGTTVTVSSASTKGPSVFPLAPSSKSTSGGTAALGCLVKDYFPEPVTVSWNSGALTSGVHTFPAVLQSSGLYSLSSVVTVPSSSLGTQTYICNVNHKPSNTKVDKRVEPKSCDKTHTCPPCPAPEAAGGPSVFLFPPKPKDTLYITREPEVTCVVVDVSHEDPEVKFNWYVDGVEVHNAKTKPREEQYNSTYRVVSVLTVLHQDWLNGKEYKCKVSNKALPAPIEKTISKAKGQPREPQVYTLPPSREEMTKNQVSLWCLVKGFYPSDIAVEWESNGQPENNYKTTPPVLDSDGSFFLYSKLTVDKSRWQQGNVFSCSVMHEALHNHYTQKSLSLSPGGGGSGGGSGGGEIVLTQSPATLSLSPGERATLSCRASESVDNYGMSFMNWFQQKPGQPPKLLIHAASNQGSGVPSRFSGSGSGTDFTLTISSLEPEDFAVYFCQQSKEVPYTFGGGTKVEIKGGGSGGGGQVQLVQSGAEVKKPGASVKVSCKASGYSFTSYWMNWVRQAPGQGLEWIGVIHPSDSETWLDQKFKDRVTITVDKSTSTAYMELSSLRSEDTAVYYCAREHYGTSPFAYWGQGTLVTVSSGGCGGGEVAALEKEVAALEKEVAALEKEVAALEK
chain 4: EIVLTQSPATLSLSPGERATLSCRASESVDNYGMSFMNWFQQKPGQPPKLLIHAASNQGSGVPSRFSGSGSGTDFTLTISSLEPEDFAVYFCQQSKEVPYTFGGGTKVEIKGGGSGGGGQVQLVQSGAEVKKPGASVKVSCKASGYSFTSYWMNWVRQAPGQGLEWIGVIHPSDSETWLDQKFKDRVTITVDKSTSTAYMELSSLRSEDTAVYYCAREHYGTSPFAYWGQGTLVTVSSGGCGGGKVAALKEKVAALKEKVAALKEKVAALKE
On to B2, for which the IC50 in experiment [6] came to 2060 nM; in experiment [8] it was 1600 nM; in [10], 2550 nM. Besides, the results for the EC50 in experiment [7] and in experiment [9] were 940 nM and 1150 nM, respectively.
